Experimental data from PMC3660329, “Molecular Identification of Carnosine N-Methyltransferase as Chicken Histamine N-Methyltransferase-Like Protein (HNMT-Like)” (PLoS ONE, 2013).

Tests used:
Assay in all cases: radiochemical methyl transfer from (3H)SAM, nonlinear regression
Type in all cases: biochemical, Gallus gallus
[1] = substrate: C[S+](CC[C@H](N)C(=O)O)C[C@H]1O[C@@H](n2cnc3c(N)ncnc32)[C@H](O)[C@@H]1O; conditions: 20 mM carnosine, variable (1H+3H)SAM, 1 mM MgCl2, pH 7.5, 37 °C, labelled compound
From the text: (§1) radiochemical methyl transfer from (3H)SAM, nonlinear regression on chicken HNMT-like protein (recombinant carnosine N-methyltransferase)

[2] = substrate: NCCC(=O)N[C@@H](Cc1cnc[nH]1)C(=O)O; conditions: non-saturating 1 µM SAM, 1 mM MgCl2, pH 7.5, 37 °C
From the text: as §1

[3] = substrate: C[S+](CC[C@H](N)C(=O)O)C[C@H]1O[C@@H](n2cnc3c(N)ncnc32)[C@H](O)[C@@H]1O; conditions: 20 mM carnosine, variable (1H+3H)SAM, 1 mM MgCl2, pH 7.5, 37 °C, labelled compound; remark: listed apart in the source
From the text: (§2) radiochemical methyl transfer from (3H)SAM, nonlinear regression on carnosine N-methyltransferase (native, chicken pectoral muscle)

[4] = substrate: NCCC(=O)N[C@@H](Cc1cnc[nH]1)C(=O)O; conditions: non-saturating 1 µM SAM, 1 mM MgCl2, pH 7.5, 37 °C; remark: listed apart in the source
From the text: as §2

| Protein | Km [1] | Vmax [1] | kcat [1] | Km [2] | Vmax [2] | kcat [2] | Km [3] | Vmax [3] | kcat [3] | Km [4] | Vmax [4] | kcat [4] |
| --- | --- | --- | --- | --- | --- | --- | --- | --- | --- | --- | --- | --- |
| chicken HNMT-like protein (recombinant carnosine N-methyltransferase) (Gallus gallus) (protein, full-length ORF from pectoral muscle cDNA, C-terminal His6 tag (pEF6/Myc-His A), expressed in COS-7, HisTrap purified to homogeneity, monomer about 38 kDa (36 kDa without tag)) MEPTPEMKRNRLPSMNFEAEILADPHDNSELYVIPSMRSLTAEEYVEAFQSFLDHSTEHQCMDEFNKEVMPHIMAGLGNGKSTINILGVGSGTGEQDLKMIQILQAAHPGVLINNEIIEPNPQHVAAYKELVNRAPDLQGVSFTWHQLTSSEYEQQVKEKNTHKKFDFIHMIQMLYRVEDIPNTIKFFHSCLNHQGKLLIIILSDSSGWASLWKKYRHCLPSTDSGHYITSDSITAVLRKLGIKYHVYEFPSGWDITECFIEGDPAGGHMMDFLTGTKNFLGTAPAALRSRLQEALCQPECSSRKDGRVIFCNNLSMIVAES | 14 ± 1 µM | 0.786 µmol/min/mg | 0.519 ± 0.013 s⁻¹ | 1628 ± 71 µM | 0.0519 µmol/min/mg | 0.034 ± 0.001 s⁻¹ | – | – | – | – | – | – |
| carnosine N-methyltransferase (native, chicken pectoral muscle) (Gallus gallus) (protein, about 45 kDa by gel filtration) MEPTPEMKRNRLPSMNFEAEILADPHDNSELYVIPSMRSLTAEEYVEAFQSFLDHSTEHQCMDEFNKEVMPHIMAGLGNGKSTINILGVGSGTGEQDLKMIQILQAAHPGVLINNEIIEPNPQHVAAYKELVNRAPDLQGVSFTWHQLTSSEYEQQVKEKNTHKKFDFIHMIQMLYRVEDIPNTIKFFHSCLNHQGKLLIIILSDSSGWASLWKKYRHCLPSTDSGHYITSDSITAVLRKLGIKYHVYEFPSGWDITECFIEGDPAGGHMMDFLTGTKNFLGTAPAALRSRLQEALCQPECSSRKDGRVIFCNNLSMIVAES | – | – | – | – | – | – | 11 ± 1 µM | 0.153 µmol/min/mg | 0.093 ± 0.002 s⁻¹ | 1646 ± 157 µM | 0.0138 µmol/min/mg | 0.008 s⁻¹ |
